T1: Human CD228 protein (human, UniProt P08582 20-708, limits assumed)
T1 construct: Recombinant protein made in CHO cells, purified over a Ni column; The printed entry begins with the leader (MRGPSG...) and ends with ten His; also called hCD228; CD228-His protein
T1 sequence: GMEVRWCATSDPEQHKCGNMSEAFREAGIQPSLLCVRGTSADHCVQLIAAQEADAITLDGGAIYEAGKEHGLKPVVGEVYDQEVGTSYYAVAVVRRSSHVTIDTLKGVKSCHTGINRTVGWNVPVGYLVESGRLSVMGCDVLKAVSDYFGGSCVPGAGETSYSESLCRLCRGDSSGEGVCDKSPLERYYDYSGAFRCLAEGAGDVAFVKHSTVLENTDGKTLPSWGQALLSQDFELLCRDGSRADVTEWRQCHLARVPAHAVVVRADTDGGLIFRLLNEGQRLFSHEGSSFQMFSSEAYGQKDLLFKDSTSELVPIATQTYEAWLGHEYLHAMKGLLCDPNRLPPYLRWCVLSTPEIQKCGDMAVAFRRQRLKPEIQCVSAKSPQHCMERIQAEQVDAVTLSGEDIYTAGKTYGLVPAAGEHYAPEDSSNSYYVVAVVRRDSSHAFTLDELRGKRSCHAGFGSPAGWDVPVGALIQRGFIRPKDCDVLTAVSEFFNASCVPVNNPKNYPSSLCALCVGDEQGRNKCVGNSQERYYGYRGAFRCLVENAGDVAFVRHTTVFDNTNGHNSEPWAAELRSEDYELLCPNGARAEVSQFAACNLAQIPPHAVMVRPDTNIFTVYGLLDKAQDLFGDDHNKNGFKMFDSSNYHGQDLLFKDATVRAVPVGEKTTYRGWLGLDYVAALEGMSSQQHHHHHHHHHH

T2: Mouse CD228 protein (mouse, UniProt Q9R0R1 20-708, limits assumed)
T2 construct: Recombinant His-tagged protein from CHO cells
T2 chain: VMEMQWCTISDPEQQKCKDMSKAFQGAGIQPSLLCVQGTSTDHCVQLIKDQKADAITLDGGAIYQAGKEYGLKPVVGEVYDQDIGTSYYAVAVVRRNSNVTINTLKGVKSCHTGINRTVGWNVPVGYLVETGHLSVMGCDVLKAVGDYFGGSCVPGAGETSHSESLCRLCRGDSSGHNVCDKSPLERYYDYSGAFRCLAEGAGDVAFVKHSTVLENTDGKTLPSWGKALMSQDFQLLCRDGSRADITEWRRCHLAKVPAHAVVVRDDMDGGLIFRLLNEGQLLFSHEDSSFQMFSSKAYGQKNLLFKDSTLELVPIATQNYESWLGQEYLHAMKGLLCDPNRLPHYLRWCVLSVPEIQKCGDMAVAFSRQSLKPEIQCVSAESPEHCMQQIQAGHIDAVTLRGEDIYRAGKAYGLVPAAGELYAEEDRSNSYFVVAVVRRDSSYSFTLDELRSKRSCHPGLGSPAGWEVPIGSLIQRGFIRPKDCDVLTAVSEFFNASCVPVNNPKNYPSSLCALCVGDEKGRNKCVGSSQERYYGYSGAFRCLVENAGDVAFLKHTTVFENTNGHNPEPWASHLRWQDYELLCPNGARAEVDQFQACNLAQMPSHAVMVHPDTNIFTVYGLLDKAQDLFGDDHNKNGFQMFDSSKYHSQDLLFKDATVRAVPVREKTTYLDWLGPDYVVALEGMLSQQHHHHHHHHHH

B1: CA13 (antibody, human IgG1, kappa, V domains shown)
VH: EVQLVESGGGVVQPGRSLRLSCAASGFTFSSYAMHWVRQAPGKGLEWVAVISYDGSNKYYADSVKGRFTISRDNSKNTLFLQMNSLRAEDTAVYYCARDVYHYGSRSPYYYGMDVWGQGTTVTVSS
VL: DIVMTQSPSSLSASVGDRVTITCRASQGISNYLAWFQQKPGKVPKLLIYAASTLQSGVPSRFSGSGSGTDFTLTISSLQPEDVATYYCQKYNSAPFTFGPGTKVDIKR
notes: Intact IgG1 from fully human antibody-transgenic mice
B2: CA67 (antibody, human IgG1, kappa, V domains shown)
VH: EVQLVESGGGVVQPGRSLRLSCAASGFTFSSYAMHWVRQAPGKGLEWVAVISYDGSNKYYADSVKGRFTISRDNSKNTLYLQMNSLRAEDTAVYYCARDVYHYGSRSPYYYGMDVWGQGTTVTVSS
VL: DIQMTQSPSSLSASVGDRVTITCRASQAISNYLAWYQQKPGKVPKLLIYAASTLHPGVPSRFSGSGSGTDFTLTISSLQPEDVATYYCQKYNSAPFTFGPGTKVDIKR
notes: Intact IgG1
B3: CA518 (antibody, human IgG1, kappa, V domains shown)
VH: EVQLVESGGGVVQPGRSLRLSCAASGFTFSSYAMHWVRQAPGKGLEWVAVISYDGSNKYHADSVKGRFTISRDNSKNTLFLQMNSLRAEDTAVYYCVRDVYHYGSRSPYYYGMDVWGQGTTVTVSS
VL: DIQMTQSPSSVSASVGDRVTITCRASQGISSWLAWYQQKPGKAPKLLIYAASSLQSGVPSRFSGSGSGTDFTLTISSLQPEDVATYYCQKYNSAPFTFGPGTKVDIKR
notes: Intact IgG1

Columns and labels:
Human CD228 protein [1] = target: T1, Human CD228 protein; assay: Octet competition on His-chip CD228; competitor: CA67
Protocol: (§1) CD228 proteins were immobilized on His chips at 10 μg/mL with a threshold of 0.5 nm. The first CD228 antibody (30 μg/mL) was immobilized, and the competitive binding of the second CD228 antibody (30 μg/mL) was analyzed. The Octet 8K system was used to analyze the response of antibody 2 and to determine whether antibody 1 and antibody 2 were in competition.

Human CD228 protein [2] = target: T1, Human CD228 protein; assay: Octet competition on His-chip CD228; competitor: CA13
Protocol: as §1
(§2) The final competition analysis was conducted using the following calculation method: 1—response value/blank value.

Human CD228 protein [3] = target: T1, Human CD228 protein; assay: Octet competition on His-chip CD228; competitor: BA352
Protocol: as §1, §2

Human CD228 protein [4] = target: T1, Human CD228 protein; assay: Octet competition on His-chip CD228; competitor: CA518
Protocol: as §1

Human CD228 protein [5] = target: T1, Human CD228 protein; assay: Octet competition on His-chip CD228; competitor: hl49
Protocol: as §1

Human CD228 protein [6] = target: T1, Human CD228 protein; assay: Octet competition on His-chip CD228; competitor: CA518; remark: listed apart in the source
Protocol: as §1, §2

Human CD228 protein [7] = target: T1, Human CD228 protein; assay: Octet competition on His-chip CD228; competitor: BA352; remark: listed apart in the source
Protocol: as §1

Mouse CD228 protein = target: T2, Mouse CD228 protein; assay: SPR, BIAcore 8K; antibody on ProA chip, CD228 protein as analyte
Protocol: The binding kinetics of the antibodies to the CD228 proteins was measured using the BIAcore 8K system based on surface plasmon resonance (SRP). CD228 antibodies were immobilized on ProA chips at a concentration of 2 μg/mL, and the binding activity of the CD228 antibodies to human, monkey, and mouse CD228 proteins was analyzed. Human, monkey and mouse CD228 proteins were serially 2-fold diluted from 50 nM to 5 concentrations with an HBS-EP+ buffer. The binding kinetics of the CD228 proteins were analyzed by Biacore, and the affinity activity KD values were calculated by fitting.

Human CD228 protein [8] = target: T1, Human CD228 protein; assay: Octet competition on His-chip CD228; competitor: CA13; remark: listed apart in the source
Protocol: as §1

Human CD228 protein [9] = target: T1, Human CD228 protein; assay: Octet, CD228 on His chip; PBST buffer in place of the first antibody
Protocol: as §1

Human CD228 protein [10] = target: T1, Human CD228 protein; assay: Octet competition on His-chip CD228; competitor: CA149
Protocol: as §1, §2

Human CD228 protein [11] = target: T1, Human CD228 protein; assay: Octet competition on His-chip CD228; competitor: CA67; remark: listed apart in the source
Protocol: as §1, §2

Row | Binder | Octet response value (Human CD228 protein [1]) | competition (1-response value/blank value) (Human CD228 protein [2]) | competition (1-response value/blank value) (Human CD228 protein [3]) | Octet response value (Human CD228 protein [4]) | Octet response value (Human CD228 protein [5]) | competition (1-response value/blank value) (Human CD228 protein [6]) | Octet response value (Human CD228 protein [7]) | binding result (Mouse CD228 protein) | Octet response value (Human CD228 protein [8]) | Octet response value (blank value, PBST buffer) (Human CD228 protein [9]) | competition (1-response value/blank value) (Human CD228 protein [10]) | competition (1-response value/blank value) (Human CD228 protein [11])
1 | B1 | -0.0021 | 100% | -9% | -0.0081 | 0.353 | 102% | 0.427 | no binding | -0.0011 | 0.393 | 101% | 100%
2 | B2 | -0.007 | 102% | -8% | -0.0133 | 0.33 | 103% | 0.423 | no binding | -0.0065 | 0.425 | 103% | 102%
3 | B3 | 0.0039 | 98% | -5% | -0.0046 | 0.281 | 101% | 0.415 | no binding | 0.006 | 0.442 | 101% | 99%
